B1: LINE1-mini (parent)
chain: GGCAGAGCUCAACACAGCGUGGCAAAGUGGCUGUGGCUAGACUGCC

Variants of: B1
Assay: self-cleavage, relative activity (ratio to wild type); higher = more cleavage; in vitro, sequencing; the parent is a self-cleaving ribozyme

Compared with GGCAGAGCUUAACACAGCGUGGCAAAGUGGCUGUGGCUAUACUGCC, GGCAGAGCUCAACACAGCGUGACAAAGUUGCUGUGGCUAGACUGCC is higher in self-cleavage: 0.06 for the first, 0.65 for the second.

Going from GGCAGGGCUCAACACAGCGUAGCAAAGUGGCUGUGGCUAGACUGCC to GGCAGAGCUCAACACAGCGUGGCUAAGUGGCUGUGGCUAGAAUGCC, the self-cleavage falls from 0.23 to 0.18.

Compared with GGCAGAGCUCAACACACCGUGGGAAAGUGGCUGUGGCUAGACUGCC, GGCAGAGCUCAACACUGCGUGGCAAAGUGGCUGUGGCUAGACUGAC is lower in self-cleavage: 1.22 for the first, 0.1 for the second.

Going from GGCAGAGCUCAACACAGCGUGGCAGUGUGGCUGUGGCUAGACUGCC to GGCAGAGCUCAACAUAGCGUGGAAAAGUGGCUGUGGCUAGACUGCC, the self-cleavage rises from 0.1 to 2.82.

Going from GGGAGAGCUCAACACAGCGUGGCAAAGUAGCUGUGGCUAGACUGCC to GUCAGAGCUCAACACAGCGUGGCAACGUGGCUGUGGCUAGACUGCC, the self-cleavage falls from 0.38 to 0.09.

Compared with GGCAUAGCUCAGCACAGCGUGGCAAAGUGGCUGUGGCUAGACUGCC, GGGAGAGCUCAACACAGUGUGGCAAAGUGGCUGUGGCUAGACUGCC is higher in self-cleavage: 0.04 for the first, 0.54 for the second.

Compared with GGCAGAGCCCAACACAGCGUGGCAAAGUGGUUGUGGCUAGACUGCC, GGCAGAGCUCAACACAGCGUGGCGAAGUGGCUGUGGAUAGACUGCC is higher in self-cleavage: 0.03 for the first, 0.09 for the second.

Compared with GGCAGAGCUCAAAACACCGUGGCAAAGUGGCUGUGGCUAGACUGCC, GGCAGAACUCAACACAGCGUGGCAAAGUGGCUGGGGCUAGACUGCC is higher in self-cleavage: 0.1 for the first, 0.14 for the second.

Compared with GGUAGAGCUCAACGCAGCGUGGCAAAGUGGCUGUGGCUAGACUGCC, AGCAGAGCUCAACACAGCGUGGCAAAGUGGCUGUGGCUAGACUCCC is higher in self-cleavage: 0.34 for the first, 0.47 for the second.

Going from GGCAUAGCUCAAAACAGCGUGGCAAAGUGGCUGUGGCUAGACUGCC to GGCAGAGCUCAACACAGCGUGGCAAAGUGGCUGUGGCUAGAUUGCA, the self-cleavage rises from 0.09 to 0.16.

Compared with GGCAGAGGUCAACACAGCGUGGCAAAGUGGCUGUGACUAGACUGCC, GGCAGAGCUCAACACAGCGUGGCAAACUGGCUGUGGCUAGACUGUC is higher in self-cleavage: 0.18 for the first, 2.02 for the second.

First: GGCAGAGCUCAACACAGCGUGGCAAGGUGGCUGUGGCUAGACAGCC
Second: GGCAGAGCUCAACACAGCGUCGCAAAGCGGCUGUGGCUAGACUGCC
The self-cleavage of the first is lower: 0.07 for the first, 1.39 for the second.

First: GGCAGAGCUCAACACAGCGUGGCAAAGUGGCUGUGGCUCGCCUGCC
Second: GGCAGAGCACAACACAGCGUGGCAAAGUGGCUGUGACUAGACUGCC
The self-cleavage of the first is higher: 0.62 for the first, 0.34 for the second.

Compared with GGCAGAGCUCAACACAGAGUGGCAAAGUGCCUGUGGCUAGACUGCC, GGCAGAGCUCAACACAGCGUGGCAAAGUGGCUGUGGCUAGCCCGCC is lower in self-cleavage: 1.99 for the first, 0.08 for the second.

Compared with GGCAGAGCUUAACACACCGUGGCAAAGUGGCUGUGGCUAGACUGCC, GGCCGAGCUCAACACAGCGUGGCGAAGUGGCUGUGGCUAGACUGCC is lower in self-cleavage: 0.61 for the first, 0.14 for the second.

Compared with GGCAGAGCUCAACACAGCGUGGCAAGGUGGCAGUGGCUAGACUGCC, GGCAGAGCUCAACACAUCGUUGCAAAGUGGCUGUGGCUAGACUGCC is higher in self-cleavage: 0.08 for the first, 0.36 for the second.

Compared with GGCAGAGCUCGACACAGCGUCGCAAAGUGGCUGUGGCUAGACUGCC, GGCAGAGCUCAACACAGCGCGGCAAAGUGUCUGUGGCUAGACUGCC is higher in self-cleavage: 0.02 for the first, 0.41 for the second.

First: GGCUGAGCUCAAAACAGCGUGGCAAAGUGGCUGUGGCUAGACUGCC
Second: GUCAGAGCUCAACACAGCGUGGCAAAGUGGCUGUGGCUGGACUGCC
The self-cleavage of the first is higher: 0.12 for the first, 0.04 for the second.

Compared with GGCAGAGCUCAACAUAGCGUGGCAAAGUGGCUGUGCCUAGACUGCC, GGCAGAGCUCAACACAGCGUGGCAAUGUGGCUGUGGCUAGAGUGCC is higher in self-cleavage: 0.06 for the first, 0.1 for the second.

Going from GGCAGAGCUCAACACAGCCUGGCAAAGUGGCUGUAGCUAGACUGCC to GGCAGAGCUCAACACAGCGUGGCAAAGUGGCUGUGACUAUACUGCC, the self-cleavage rises from 0.17 to 0.47.

Compared with GGCAGAGCCCAACAAAGCGUGGCAAAGUGGCUGUGGCUAGACUGCC, GGCAGAGCUCAACACAGCGGGGCAGAGUGGCUGUGGCUAGACUGCC is higher in self-cleavage: 0.03 for the first, 0.48 for the second.

Going from GCCAGAGCUCAACACAGCGUGGCAAAGUGGCUGUGGCGAGACUGCC to GGCAGUGCUCAACACAGCGUGGCAAAGUGGAUGUGGCUAGACUGCC, the self-cleavage rises from 0.03 to 0.38.

Compared with GGCAGAGCUCAACACAGCGGGUCAAAGUGGCUGUGGCUAGACUGCC, GUCAGAGCUCAACACAGCGUGGCAAAGUGCCUGUGGCUAGACUGCC is lower in self-cleavage: 0.51 for the first, 0.1 for the second.

Going from GGCAGAGCUCACCACAGCGUGGCAAAGUGGCUGUGCCUAGACUGCC to GGCGGAGCUCAACACAGCGUGGCAAAGAGGCUGUGGCUAGACUGCC, the self-cleavage rises from 0.02 to 0.13.

Going from GGCAGAGCUCAACACAGGGUGGCAAAGUGGCUGUGGCUAGACUGUC to GGCAGAGCUCAACACAGCGUGGCAAAGUGGCUGUGACCAGACUGCC, the self-cleavage falls from 0.13 to 0.12.

First: GGCAGGGCUCAACACAGCGUGGCAAAGUGGAUGUGGCUAGACUGCC
Second: CGCAGAGCUCAACACAGCGUGGCAAAGUGGCUGUGGCUAGCCUGCC
The self-cleavage of the first is higher: 0.07 for the first, 0.02 for the second.

Compared with GGCAGAGCUCAACACAGCGUGGCAAAGUGGCUGUGGUUAGACUGUC, GGCAGAGCUCAACACAGGGUGGCAAAUUGGCUGUGGCUAGACUGCC is higher in self-cleavage: 0.04 for the first, 0.61 for the second.

Compared with GGCAGAGCUCAACACAGCGUGGCAAAGUGUCUGUGGCUAUACUGCC, GGCAGAGCACAACACAGCGUGGCAAAGUGGCUGUGGUUAGACUGCC is lower in self-cleavage: 0.13 for the first, 0.12 for the second.
